From patent US10584350B2, “Structurally modified COI1” (Board of Trustees of Michigan State University, priority 2016, dated 2020)

B1: Y386: COI1 alanine substitution mutant at Y386 (protein, UniProt O04197 1-592, looked up, variant Y386A)
Coronatine-insensitive …: MEDPDIKRCKLSCVATVDDVIEQVMTYITDPKDRDSASLVCRRWFKIDSETREHVTMALCYTATPDRLSRRFPNLRSLKLKGKPRAAMFNLIPENWGGYVTPWVTEISNNLRQLKSVHFRRMIVSDLDLDRLAKARADDLETLKLDKCSGFTTDGLLSIVTHCRKIKTLLMEESSFSEKDGKWLHELAQHNTSLEVLNFYMTEFAKISPKDLETIARNCRSLVSVKVGDFEILELVGFFKAAANLEEFCGGSLNEDIGMPEKYMNLVFPRKLCRLGLSYMGPNEMPILFPFAAQIRKLDLLYALLETEDHCTLIQKCPNLEVLETRNVIGDRGLEVLAQYCKQLKRLRIERGADEQGMEDEEGLVSQRGLIALAQGCQELEYMAVAVSDITNESLESIGTYLKNLCDFRLVLLDREERITDLPLDNGVRSLLIGCKKLRRFAFYLRQGGLTDLGLSYIGQYSPNVRWMLLGYVGESDEGLMEFSRGCPNLQKLEMRGCCFSERAIAAAVTKLPSLRYLWVQGYRASMTGQDLMQMARPYWNIELIPSRRVPEVNQQGEIREMEHPAHILAYYSLAGQRTDCPTTVRVLKEPI
B2: D407: COI1 alanine substitution mutant at D407 (protein, UniProt O04197 1-592, looked up, variant D407A)
Coronatine-insensitive …: MEDPDIKRCKLSCVATVDDVIEQVMTYITDPKDRDSASLVCRRWFKIDSETREHVTMALCYTATPDRLSRRFPNLRSLKLKGKPRAAMFNLIPENWGGYVTPWVTEISNNLRQLKSVHFRRMIVSDLDLDRLAKARADDLETLKLDKCSGFTTDGLLSIVTHCRKIKTLLMEESSFSEKDGKWLHELAQHNTSLEVLNFYMTEFAKISPKDLETIARNCRSLVSVKVGDFEILELVGFFKAAANLEEFCGGSLNEDIGMPEKYMNLVFPRKLCRLGLSYMGPNEMPILFPFAAQIRKLDLLYALLETEDHCTLIQKCPNLEVLETRNVIGDRGLEVLAQYCKQLKRLRIERGADEQGMEDEEGLVSQRGLIALAQGCQELEYMAVYVSDITNESLESIGTYLKNLCAFRLVLLDREERITDLPLDNGVRSLLIGCKKLRRFAFYLRQGGLTDLGLSYIGQYSPNVRWMLLGYVGESDEGLMEFSRGCPNLQKLEMRGCCFSERAIAAAVTKLPSLRYLWVQGYRASMTGQDLMQMARPYWNIELIPSRRVPEVNQQGEIREMEHPAHILAYYSLAGQRTDCPTTVRVLKEPI
B3: L410: COI1 alanine substitution mutant at L410 (protein, UniProt O04197 1-592, looked up, variant L410A)
Coronatine-insensitive …: MEDPDIKRCKLSCVATVDDVIEQVMTYITDPKDRDSASLVCRRWFKIDSETREHVTMALCYTATPDRLSRRFPNLRSLKLKGKPRAAMFNLIPENWGGYVTPWVTEISNNLRQLKSVHFRRMIVSDLDLDRLAKARADDLETLKLDKCSGFTTDGLLSIVTHCRKIKTLLMEESSFSEKDGKWLHELAQHNTSLEVLNFYMTEFAKISPKDLETIARNCRSLVSVKVGDFEILELVGFFKAAANLEEFCGGSLNEDIGMPEKYMNLVFPRKLCRLGLSYMGPNEMPILFPFAAQIRKLDLLYALLETEDHCTLIQKCPNLEVLETRNVIGDRGLEVLAQYCKQLKRLRIERGADEQGMEDEEGLVSQRGLIALAQGCQELEYMAVYVSDITNESLESIGTYLKNLCDFRAVLLDREERITDLPLDNGVRSLLIGCKKLRRFAFYLRQGGLTDLGLSYIGQYSPNVRWMLLGYVGESDEGLMEFSRGCPNLQKLEMRGCCFSERAIAAAVTKLPSLRYLWVQGYRASMTGQDLMQMARPYWNIELIPSRRVPEVNQQGEIREMEHPAHILAYYSLAGQRTDCPTTVRVLKEPI
B4: V411: COI1 alanine substitution mutant at V411 (protein, UniProt O04197 1-592, looked up, variant V411A)
Coronatine-insensitive …: MEDPDIKRCKLSCVATVDDVIEQVMTYITDPKDRDSASLVCRRWFKIDSETREHVTMALCYTATPDRLSRRFPNLRSLKLKGKPRAAMFNLIPENWGGYVTPWVTEISNNLRQLKSVHFRRMIVSDLDLDRLAKARADDLETLKLDKCSGFTTDGLLSIVTHCRKIKTLLMEESSFSEKDGKWLHELAQHNTSLEVLNFYMTEFAKISPKDLETIARNCRSLVSVKVGDFEILELVGFFKAAANLEEFCGGSLNEDIGMPEKYMNLVFPRKLCRLGLSYMGPNEMPILFPFAAQIRKLDLLYALLETEDHCTLIQKCPNLEVLETRNVIGDRGLEVLAQYCKQLKRLRIERGADEQGMEDEEGLVSQRGLIALAQGCQELEYMAVYVSDITNESLESIGTYLKNLCDFRLALLDREERITDLPLDNGVRSLLIGCKKLRRFAFYLRQGGLTDLGLSYIGQYSPNVRWMLLGYVGESDEGLMEFSRGCPNLQKLEMRGCCFSERAIAAAVTKLPSLRYLWVQGYRASMTGQDLMQMARPYWNIELIPSRRVPEVNQQGEIREMEHPAHILAYYSLAGQRTDCPTTVRVLKEPI
B5: L412: COI1 alanine substitution mutant at L412 (protein, UniProt O04197 1-592, looked up, variant L412A)
Coronatine-insensitive …: MEDPDIKRCKLSCVATVDDVIEQVMTYITDPKDRDSASLVCRRWFKIDSETREHVTMALCYTATPDRLSRRFPNLRSLKLKGKPRAAMFNLIPENWGGYVTPWVTEISNNLRQLKSVHFRRMIVSDLDLDRLAKARADDLETLKLDKCSGFTTDGLLSIVTHCRKIKTLLMEESSFSEKDGKWLHELAQHNTSLEVLNFYMTEFAKISPKDLETIARNCRSLVSVKVGDFEILELVGFFKAAANLEEFCGGSLNEDIGMPEKYMNLVFPRKLCRLGLSYMGPNEMPILFPFAAQIRKLDLLYALLETEDHCTLIQKCPNLEVLETRNVIGDRGLEVLAQYCKQLKRLRIERGADEQGMEDEEGLVSQRGLIALAQGCQELEYMAVYVSDITNESLESIGTYLKNLCDFRLVALDREERITDLPLDNGVRSLLIGCKKLRRFAFYLRQGGLTDLGLSYIGQYSPNVRWMLLGYVGESDEGLMEFSRGCPNLQKLEMRGCCFSERAIAAAVTKLPSLRYLWVQGYRASMTGQDLMQMARPYWNIELIPSRRVPEVNQQGEIREMEHPAHILAYYSLAGQRTDCPTTVRVLKEPI
B6: L413: COI1 alanine substitution mutant at L413 (protein, UniProt O04197 1-592, looked up, variant L413A)
Coronatine-insensitive …: MEDPDIKRCKLSCVATVDDVIEQVMTYITDPKDRDSASLVCRRWFKIDSETREHVTMALCYTATPDRLSRRFPNLRSLKLKGKPRAAMFNLIPENWGGYVTPWVTEISNNLRQLKSVHFRRMIVSDLDLDRLAKARADDLETLKLDKCSGFTTDGLLSIVTHCRKIKTLLMEESSFSEKDGKWLHELAQHNTSLEVLNFYMTEFAKISPKDLETIARNCRSLVSVKVGDFEILELVGFFKAAANLEEFCGGSLNEDIGMPEKYMNLVFPRKLCRLGLSYMGPNEMPILFPFAAQIRKLDLLYALLETEDHCTLIQKCPNLEVLETRNVIGDRGLEVLAQYCKQLKRLRIERGADEQGMEDEEGLVSQRGLIALAQGCQELEYMAVYVSDITNESLESIGTYLKNLCDFRLVLADREERITDLPLDNGVRSLLIGCKKLRRFAFYLRQGGLTDLGLSYIGQYSPNVRWMLLGYVGESDEGLMEFSRGCPNLQKLEMRGCCFSERAIAAAVTKLPSLRYLWVQGYRASMTGQDLMQMARPYWNIELIPSRRVPEVNQQGEIREMEHPAHILAYYSLAGQRTDCPTTVRVLKEPI
B7: R415: COI1 alanine substitution mutant at R415 (protein, UniProt O04197 1-592, looked up, variant R415A)
Coronatine-insensitive …: MEDPDIKRCKLSCVATVDDVIEQVMTYITDPKDRDSASLVCRRWFKIDSETREHVTMALCYTATPDRLSRRFPNLRSLKLKGKPRAAMFNLIPENWGGYVTPWVTEISNNLRQLKSVHFRRMIVSDLDLDRLAKARADDLETLKLDKCSGFTTDGLLSIVTHCRKIKTLLMEESSFSEKDGKWLHELAQHNTSLEVLNFYMTEFAKISPKDLETIARNCRSLVSVKVGDFEILELVGFFKAAANLEEFCGGSLNEDIGMPEKYMNLVFPRKLCRLGLSYMGPNEMPILFPFAAQIRKLDLLYALLETEDHCTLIQKCPNLEVLETRNVIGDRGLEVLAQYCKQLKRLRIERGADEQGMEDEEGLVSQRGLIALAQGCQELEYMAVYVSDITNESLESIGTYLKNLCDFRLVLLDAEERITDLPLDNGVRSLLIGCKKLRRFAFYLRQGGLTDLGLSYIGQYSPNVRWMLLGYVGESDEGLMEFSRGCPNLQKLEMRGCCFSERAIAAAVTKLPSLRYLWVQGYRASMTGQDLMQMARPYWNIELIPSRRVPEVNQQGEIREMEHPAHILAYYSLAGQRTDCPTTVRVLKEPI
B8: R440: COI1 alanine substitution mutant at R440 (protein, UniProt O04197 1-592, looked up, variant R440A)
Coronatine-insensitive …: MEDPDIKRCKLSCVATVDDVIEQVMTYITDPKDRDSASLVCRRWFKIDSETREHVTMALCYTATPDRLSRRFPNLRSLKLKGKPRAAMFNLIPENWGGYVTPWVTEISNNLRQLKSVHFRRMIVSDLDLDRLAKARADDLETLKLDKCSGFTTDGLLSIVTHCRKIKTLLMEESSFSEKDGKWLHELAQHNTSLEVLNFYMTEFAKISPKDLETIARNCRSLVSVKVGDFEILELVGFFKAAANLEEFCGGSLNEDIGMPEKYMNLVFPRKLCRLGLSYMGPNEMPILFPFAAQIRKLDLLYALLETEDHCTLIQKCPNLEVLETRNVIGDRGLEVLAQYCKQLKRLRIERGADEQGMEDEEGLVSQRGLIALAQGCQELEYMAVYVSDITNESLESIGTYLKNLCDFRLVLLDREERITDLPLDNGVRSLLIGCKKLRAFAFYLRQGGLTDLGLSYIGQYSPNVRWMLLGYVGESDEGLMEFSRGCPNLQKLEMRGCCFSERAIAAAVTKLPSLRYLWVQGYRASMTGQDLMQMARPYWNIELIPSRRVPEVNQQGEIREMEHPAHILAYYSLAGQRTDCPTTVRVLKEPI

What follows are molecules tested on COI1-JAZ9 interaction (assay: Y2H assays on plates for protein-protein interaction). Conditions: 10 μM COR, yeast.
Type: cell-based, Arabidopsis
Procedure: Yeast EGY48 strain carrying the p8Op:LacZ reporter plasmid was co-transformed with pGilda:COI1 (or COI1 mutants) and pB42AD:JAZ9 (or other JAZs) (Clontech). Colonies were selected on SD minimal plates (BD Biosciences) supplemented with the—uracil (U)/-tryptophan (W)/-histidine (H) amino acid drop out solution (Clontech). Yeast colonies were cultured overnight in liquid SD-UWH medium, harvested, washed twice in sterile water, and the absorbance (OD600) of the cultures was adjusted to 0.2 in liquid SD galactose/raffinose-UWH medium (BD Biosciences).
For Y2H assays on plates, 10-μL culture was spotted onto SD galactose/raffinose-UWH plates with 80 μg/mL X-gal and 10 μM COR (Sigma-Aldrich). Blue color indicated protein-protein interactions after 5-7 days of incubation at 30° C.
With B1 the “COR-dependent COI1-JAZ9 interaction” value was “reduced”.
With B2 the “COR-dependent COI1-JAZ9 interaction” value was “reduced”.
For B3, the “COR-dependent COI1-JAZ9 interaction” value was “reduced”.
B4 was tested, and the “COR-dependent COI1-JAZ9 interaction” value was “reduced”.
With B5 the “COR-dependent COI1-JAZ9 interaction” value was “reduced”.
For B6, the “COR-dependent COI1-JAZ9 interaction” value was “reduced”.
For B7, the “COR-dependent COI1-JAZ9 interaction” value was “reduced”.
B8 was tested, and the “COR-dependent COI1-JAZ9 interaction” value was “reduced”.
